Experimental data reported in publication PMC2834734.

Molecular target: myc tagged version of gp96 (UniProt P14625)
Assay: pull-down; gp96-myc held on anti-myc agarose beads (Pierce c-Myc Tag IP/Co-IP kit); mixed with 10^8 DRP of purified BAAV or AAV4 vector; 4 °C for 1 h; extensive washes with TBS-T in spin columns; bound vector DNA quantified by qPCR; fold change relative to vector bound to GFP beads; n = 3

Chain of UniProt P14625 (P14625 22-803): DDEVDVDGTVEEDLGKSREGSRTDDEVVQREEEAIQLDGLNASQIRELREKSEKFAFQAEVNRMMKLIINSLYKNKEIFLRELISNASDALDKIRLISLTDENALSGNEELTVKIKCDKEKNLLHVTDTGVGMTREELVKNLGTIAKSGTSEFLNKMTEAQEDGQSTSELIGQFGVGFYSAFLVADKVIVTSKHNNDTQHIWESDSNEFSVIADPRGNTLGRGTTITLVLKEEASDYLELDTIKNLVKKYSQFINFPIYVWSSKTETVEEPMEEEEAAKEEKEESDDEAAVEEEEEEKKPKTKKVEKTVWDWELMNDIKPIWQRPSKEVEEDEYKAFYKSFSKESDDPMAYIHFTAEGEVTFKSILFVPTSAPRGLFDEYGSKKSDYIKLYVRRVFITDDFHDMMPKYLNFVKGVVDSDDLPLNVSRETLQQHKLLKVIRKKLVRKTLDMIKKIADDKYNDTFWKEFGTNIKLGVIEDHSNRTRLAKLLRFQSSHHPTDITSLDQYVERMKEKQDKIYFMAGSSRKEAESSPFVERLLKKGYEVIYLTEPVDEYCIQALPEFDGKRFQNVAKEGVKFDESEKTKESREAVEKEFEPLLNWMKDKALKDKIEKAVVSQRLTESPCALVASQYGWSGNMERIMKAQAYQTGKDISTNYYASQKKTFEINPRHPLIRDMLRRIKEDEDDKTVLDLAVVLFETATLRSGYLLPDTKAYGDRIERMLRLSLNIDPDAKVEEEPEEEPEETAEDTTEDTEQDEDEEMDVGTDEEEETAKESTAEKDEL

In the case of “recombinant bovine adeno-associated virus (BAAV) vector particles containing the CMV-GFP expression cassette (complex)”, the fold increase in bound vector against control GFP or TRPC1 beads is reported as 2 to 3 fold.
